# According to US20250243263A1 (VOYAGER THERAPEUTICS, published 2025):
# Positions count from the first letter of the chain named. Where no end group is shown, it is not given here. [ ]: non-standard residue; d: D form. pT = C[C@@H](OP(=O)(O)O)[C@H](N)C(=O)O; pS = N[C@@H](COP(=O)(O)O)C(=O)O
# T1: AT270 peptide (pT181; Tau172-186) (human)
# T1 peptide: PAKTPPAPK[pT]PPSSG
# T2: AT8 peptide (amino acids 195-215 of tau) (human, phospho-peptide, phosphorylated sites not stated in the example; immobilized on streptavidin tips)
# T2 peptide: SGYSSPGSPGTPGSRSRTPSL
# T3: AC04 peptide (human, phosphothreonine at T212 and T217 of tau (peptide positions 4, 9))
# T3 construct: Tau-derived peptide with an N-terminal Cys
# T3 peptide: CSRTPSLPTPPTREPK
# T4: tPeptide 5 (204-222) (human)
# T4 peptide: GTPGSRSR[pT]P[pS]LP[pT]PPTRE
# T5: wtTau C2 (human)
# T5 peptide: PTREPKKVA
# B1: VY011 (antibody, V domains shown)
# VH: QVQLQESGPGLVKPSETLSLTCTVSGGSISNYYWTWIRQPAGKGLEWIGRVYTSGSANYNPSLKSRVTMSVDTSKNQFSLTLSSVTAADTAVYYCARDRGLYYWGQGTLVTVSS
# VL: DIVMTQTPLSSLVTLGQPASISCRSSQSLVHSDGNTYLSWLQQRPGQPPRLLIYKISKRFFGVPDRFSGSGAGTDFTLKINRVEAEDVGIYYCMQATQFPLTFGGGTKVEIK
# notes: also called VY0I1; VY0111 (misprints in the text)
# B2: VY007 (antibody, V domains shown)
# VH: EVQLVESGGGLVQPGGSLRLSCAASRFTFSNYNMNWVRQAPGKGLEWISYISSSSSTIYYADSVKGRFTISRDNAKNSLSLQMNSLRDEDTAVYYCASLGRGYWGQGTLVTVSS
# VL: not shown
# B3: VY001 (antibody, V domains shown)
# VH: B2 VH with R26G, N31S, S56N, I70V, S80Y, S98T, T111I, V112A
# VL: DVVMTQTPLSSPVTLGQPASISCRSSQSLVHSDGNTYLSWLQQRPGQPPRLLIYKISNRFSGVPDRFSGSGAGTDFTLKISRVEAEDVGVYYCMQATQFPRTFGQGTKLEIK
# B4: VY004 (antibody, V domains shown)
# VH: EVQLVESGGGLVQAGGSLRLSCAASGFTFSDYSMNWVRQAPGKGLEWVSYIRSSSSIIYYADSVKGRFTISRDNAKNSLHLQMNSLRDEDTAVYYCARRGHFDYWGQGTLVTVSS
# VL: EIVLTQSPATLSLSPGERATLSCRASQSVSDYLAWYQQKPGQAPRLFIYDVSKRATGIPARFSGSGSGTDFTLTISSLEPEDFAVYYCQQRSNWPLTFGGGTKVEIK
# B5: VY006 (antibody, V domains shown)
# VH: EVQLVESGGGLVQPGGSLRLSCAASGFTFSSYTMNWVRQAPGKGLEWVSYISSSSSTIYYADSVKGRFTISRDNAKNSLYLQMNSLRDEDTAVYYCASLGRGDCWGQGTLVTVSS
# VL: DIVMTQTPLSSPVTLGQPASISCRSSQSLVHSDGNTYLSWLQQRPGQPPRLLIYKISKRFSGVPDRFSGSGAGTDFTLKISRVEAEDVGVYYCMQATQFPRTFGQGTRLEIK
# B6: VY012 (antibody, V domains shown)
# VH: EVQLLESGGGLVQPGGSLRLSCAASGFTYSSYAMSWVRRAPGKGLEWISIISGSSSITYYADSMKGRFTISRDNSKNTLFLQMNSLRAEDTAVYYCAKGGRYGYFQHWGQGTLVTVSS
# VL: SYVLTQPPSVSVAPGQTARITCGGNNIGSKSVHWYQQKPGQAPVLVVYDDSDRPSGIPERFSGSNSGNTATLTISRVEAGDEADYYCQVWDSSSDPVVFGGGTMLTVL
# B7: VY013 (antibody, V domains shown)
# VH: QVTLKESGPVLVKPTETLTLTCTVSGFSLINARMAVSWIRQPPGKALEWLAHIFSNDEKSYSTSLKSRLTISKDTSKSQVVLIMTNMDPVDTATYYCARIRGYSYNYGMDVWGQGTTVTVSS
# VL: DIVMTQSPLSLPVIPGEPASISCRSSQSLLHSNGYIYLDWYLQKPGQSPQLLIYVGSNRASGVPDRFSGSGSGTDFKLKISRVEAEDVGVYYCMQTLQIPRTFGGGTKVEIK
# B8: VY018 (antibody, V domains shown)
# VH: QVQLQESGPGLVKPSETLSLTCTVSGGSISNYYWSWIRQPAGKGLEWIGRIYTSGDTYYNPSLQSRVTMSVDTSKNQFSLKLSAVTAADTAVYYCARAGIVGTPGLGMDVWGQGTTVTVSS
# VL: SYELTQPPSVSVSPGQTARITCSGEALPKQYAYWYQQKPGQAPVLVIYKDSERPSGIPERFSGSSSGTTVTLTISGVQAEDEADYYCQSADSSGTYRVFGGGTKLTVL
# B9: VY005 (antibody, V domains shown)
# VH: B5 VH with T33S, V48I, S55N, Y59K, S98R, L99R, G100S, R101L, C104Y, T112I
# VL: DIQLTQSPSFLSASVGDRVTITCRASQGISCSLAWYQQKPGKAPKLLIYAASTLQSGVPSRFSGSGSGTEFTLTISSLQPEDFATYYCQQFNSYPFTFGPGTKVDIK
# B10: VY009 (antibody, V domains shown)
# VH: QITLKESGPTLVKPTQTLTLTCTLSGFSLSTSEVGVGWIRQPPGKALEWLAIIYWNDHKRYSPSLKNRLTFTKDTSKNQVVLTMTNMDPVDTATYYCARRVTGEGFDPWGQGTLVTVSS
# VL: SYELTQPPSVSVSPGQTARITCSGDALPKQYAYWYQQKPGQAPVLVIFKDTERPSGIPERFSGSSSGTTVTLTISGVQAEDEADYYCQSADSSGSYVFGTGTKVTVL
# B11: VY017 (antibody, V domains shown)
# VH: B4 VH with A14P, D31S, I57T, N77K, H80Y, G100S, H101I, F102A
# VL: EIVLTQSPATLSSSPGERATLSCRASQSVTSYLNWYQQKPGQAPRLLIYDASNRATGIPARFSGSGSGTDFTLTISSLEPEDFALYYCQQRSNWPYTFGQGTKLEIK
# B12: VY016 (antibody, V domains shown)
# VH: EVQLVESGGGLVQPGGSLRLSCAASGFTFSSYSMNWVRQAPGKGLEWVSYISRSGSTIYYADSVEGRFTISRDNAYNSLYLQMISLRDDDTAVYYCARGNWAYWGQGILVTVSS
# VL: QSVLTQPPSVSGAPGQRVTISCTGSSSNIGAGYDVHWYQQLPGTAPKLLIYGNSNRPSGVPDRFSGSKSGTSASLAITGLQAEDETDFYCQSYDSSLSGSVFGGGTKLTVL
# B13: VY019 (antibody, V domains shown)
# VH: QVQLQESGPGLVKPSETLSLTCTVSGGSISSYYWTWIRQPAGKGLEWIGRIDTSGSTNYNPSLKSRVTMSIDTSKKQFSLKLSSVTAADTAVYYCARGGDGYRYWGQGTLVTVSS
# VL: B10 VL with Y33C, F48Y, T51S, S75T, A90T, Y96W, T100G, V104L
# Target: T1, AT270 peptide (pT181; Tau172-186)
# Assay: one point ELISA
row,Binder,binding result
1,B1,no binding

# Target: T6, iPHF (UniProt P10636-8 2-441, limits assumed)
# T6 construct: also called iPHF tau
# T6 sequence (P10636 other isoform, or with tags, fused parts or gaps limits assumed): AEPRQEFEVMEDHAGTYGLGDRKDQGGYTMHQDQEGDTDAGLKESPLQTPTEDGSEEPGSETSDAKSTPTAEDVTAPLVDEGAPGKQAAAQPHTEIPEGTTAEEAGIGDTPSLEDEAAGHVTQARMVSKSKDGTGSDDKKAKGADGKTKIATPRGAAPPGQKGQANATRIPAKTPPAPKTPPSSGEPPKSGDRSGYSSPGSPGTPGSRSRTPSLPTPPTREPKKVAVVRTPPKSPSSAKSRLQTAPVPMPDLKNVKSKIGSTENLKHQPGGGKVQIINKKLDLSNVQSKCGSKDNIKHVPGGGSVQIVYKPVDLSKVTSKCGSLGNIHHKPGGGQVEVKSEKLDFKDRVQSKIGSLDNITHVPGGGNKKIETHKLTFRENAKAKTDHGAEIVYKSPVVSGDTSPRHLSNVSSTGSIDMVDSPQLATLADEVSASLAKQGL
# Assay: BLI (Octet), antibody on biosensor tip, iPHF in solution
# Experimental: Anti-human tau antibodies were assessed for affinity for iPHF by Octet (ForteBio, Menlo Park, CA) analysis. A set of recombinant human IgG1 antibodies were prepared with clone-specific variable domain pairs selected from those presented in Table 1 and human IgG1 constant domains. Candidate antibodies were immobilized on biosensor tips (ForteBio) in kinetic buffer (ForteBio). Biosensor tips were then washed before introduction of a solution of iPHF in kinetic buffer for analysis of association and dissociation with candidate antibodies.
row,Binder,Kd [nM]
1,B2,0.6
2,B3,7.7
3,B4,3.7
4,B5,1.5
5,B1,2
6,B6,5.1
7,B7,2.9
8,B8,3
9,B9,1
10,B10,1.1
11,B11,3.7

# Target: T7, enriched paired helical filament tau protein (ePHF; sarkosyl insoluble tau) (human, UniProt P10636 2-758)
# T7 sequence (P10636 other isoform, or with tags, fused parts or gaps limits assumed): as above
# Assay: follow up selectivity analysis, ePHF over wild-type tau; method not stated
row,Binder,selectivity ePHF:WT [fold]
1,B2,> 23
2,B3,> 181
3,B4,> 59
4,B5,> 40
5,B1,> 137

# Target: T6, iPHF
# Assay: follow up selectivity analysis, iPHF over wild-type tau; method not stated
row,Binder,selectivity iPHF:WT [fold]
1,B2,> 109
2,B3,> 30
3,B4,> 382
4,B5,> 145
5,B1,> 108
6,B8,> 73

# Target: T6, iPHF
# Assay: SPR (Biacore 8K)
row,Binder,Kd [nM]
1,B2,0.596
2,B3,0.293
3,B4,11.7
4,B5,0.356
5,B1,0.238

# Target: T8, wild type tau (human, UniProt P10636 2-758)
# T8 construct: also called WT
# T8 sequence (P10636 other isoform, or with tags, fused parts or gaps limits assumed): as above
# Assay: direct ELISA, wild type tau coated
# Experimental: (§1) A set of recombinant human IgG1 antibodies were prepared with clone-specific variable domain pairs selected from those presented in Table 1 and human IgG1 constant domains. These candidate antibodies were analyzed for binding to ePHF and specificity for ePHF over wild type tau by direct ELISA.
# (§2) For direct ePHF and wildtype tau ELISA, plates were first coated with ePHF or wild type tau. Antigen solutions were prepared in PBS and 50 μL were pipetted into each well. Plates were covered and incubated for one hour at 37° C. or overnight at 4° C. Plates were then washed and blocked by addition of 150 μl of blocking buffer to each well and incubated one hour at room temperature. Plates were then washed before addition of serially diluted candidate antibody samples prepared in blocking buffer. Detection of candidate antibody binding was carried out by washing plates and adding a solution of enzyme-labeled secondary antibody in blocking buffer to each well. Secondary antibody binding was detected by addition of substrate and spectrophotometric analysis of resulting reaction product.
Binder,EC50 [nM],binding result
B6,0.01,
B7,0.98,
B12,,no binding
B13,,no binding

# Target: T2, AT8 peptide (amino acids 195-215 of tau)
# Assay: BLI (Octet), phospho-peptide on streptavidin tips
# Experimental: Briefly, phospho-peptides were immobilized on streptavidin biosensor tips and the binding ability of each antibody was assessed using an eight-point concentration gradient.
row,Binder,Kd [nM]
1,B2,0.0182
2,B3,0.00435
3,B5,0.00382
4,B1,0.0089

# Target: T3, AC04 peptide
# Assay: one point ELISA
# Description: (§3) One-point ELISA was used to determine differential binding based on the individual phosphorylation patterns of each peptide. OD values (450 nm) were collected (as shown in Table 13), where a stronger positive signal is shown as a higher OD value, which is indicative of increased binding.
row,Binder,OD (450 nm) [OD450]
1,B4,2.85
2,B9,2.83

# Target: T9, pS199-old (SCBio-4PEG-Peptide, Tau191-214) (human, phosphoserine at S199 of tau by the row label; SCBio-4PEG label)
# T9 construct: The suffix -old is not explained
# T9 sequence (peptide, as listed by the source): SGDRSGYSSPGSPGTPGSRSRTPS
# Assay: one point ELISA
# Description: as §3
row,Binder,OD (450 nm) [OD450]
1,B2,0.057
2,B3,0.059
3,B5,0.063

# Target: Tau191-214 phospho-peptide (pT205) (human, phosphothreonine at T205 of tau (peptide position 15); SCBio-4PEG label)
# Assay: one point ELISA
# Description: as §3
row,Binder,OD (450 nm) [OD450]
1,B1,0.06

# Target: T4, tPeptide 5 (204-222)
# Assay: one point ELISA
# Description: as §3
row,Binder,OD (450 nm) [OD450]
1,B4,0.382
2,B9,0.288

# Target: T10, Tau191-214 phospho-peptide (pS199) (human, phosphoserine at S199 of tau (peptide position 9); SCBio-4PEG label)
# T10 construct: also called pS199 peptide
# Assay: one point ELISA
# Description: as §3
row,Binder,OD (450 nm) [OD450]
1,B2,0.057
2,B3,0.059
3,B5,0.054

# Target: Tau191-214 phospho-peptide (pS202) (human, phosphoserine at S202 of tau (peptide position 12); SCBio-4PEG label)
# Assay: one point ELISA
# Description: as §3
row,Binder,OD (450 nm) [OD450]
1,B1,0.06

# Target: T5, wtTau C2
# Assay: one point ELISA
# Description: as §3
row,Binder,OD (450 nm) [OD450]
1,B4,0.169
2,B9,0.153

# Target: T7, enriched paired helical filament tau …
# Assay: cell-based or functional assay
row,Binder,Average IC50 (nM) for inhibiting tau aggregation after immunodepletion of ePHF (tau RD Biosensor cells) [nM]
1,B2,36.3
2,B3,12.5
3,B4,9.39
4,B5,8.3
5,B1,18.1

# Target: T7, enriched paired helical filament tau …
# Assay: direct ELISA, ePHF coated
# Experimental: as §1, §2
Binder,EC50 [nM],binding result
B2,0.18,
B3,0.02,
B4,0.07,
B5,0.11,
B1,0.03,
B6,0.04,
B7,0.06,
B9,0.07,
B10,1.74,
B12,,no binding
B13,,no binding
